Patent JP2014141434A (dated 2014)
Residue numbers refer to the chain shown, from its start.

T1: rROBO4−ECD (ヒトROBO4細胞外領域ポリペプチド) (human, UniProt Q8WZ75 28-461)
T1 construct: It was cloned in pEF6/V5-His-TOPO; also called ヒトROBO4−ECD; rROBO4-ECD
T1 sequence: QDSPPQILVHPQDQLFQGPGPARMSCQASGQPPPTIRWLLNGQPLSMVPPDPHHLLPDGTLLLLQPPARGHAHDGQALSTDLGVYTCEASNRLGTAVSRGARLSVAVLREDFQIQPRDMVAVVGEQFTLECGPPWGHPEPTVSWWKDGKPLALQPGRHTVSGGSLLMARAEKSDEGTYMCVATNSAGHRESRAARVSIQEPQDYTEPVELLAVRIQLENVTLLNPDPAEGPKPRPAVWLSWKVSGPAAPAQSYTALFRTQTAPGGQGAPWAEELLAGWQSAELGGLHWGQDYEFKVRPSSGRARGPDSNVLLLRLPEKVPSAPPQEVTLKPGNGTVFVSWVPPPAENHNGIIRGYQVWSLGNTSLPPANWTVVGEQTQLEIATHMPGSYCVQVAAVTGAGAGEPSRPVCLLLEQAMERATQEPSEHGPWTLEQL

T2: N末端FLAG−tag付加型カニクイザルROBO4 cynoROBO4−1 (cynomolgus monkey, UniProt Q8WZ75 28-1007 (human entry))
T2 construct: also called pCI−FLAG−cynoROBO4−1
T2 chain: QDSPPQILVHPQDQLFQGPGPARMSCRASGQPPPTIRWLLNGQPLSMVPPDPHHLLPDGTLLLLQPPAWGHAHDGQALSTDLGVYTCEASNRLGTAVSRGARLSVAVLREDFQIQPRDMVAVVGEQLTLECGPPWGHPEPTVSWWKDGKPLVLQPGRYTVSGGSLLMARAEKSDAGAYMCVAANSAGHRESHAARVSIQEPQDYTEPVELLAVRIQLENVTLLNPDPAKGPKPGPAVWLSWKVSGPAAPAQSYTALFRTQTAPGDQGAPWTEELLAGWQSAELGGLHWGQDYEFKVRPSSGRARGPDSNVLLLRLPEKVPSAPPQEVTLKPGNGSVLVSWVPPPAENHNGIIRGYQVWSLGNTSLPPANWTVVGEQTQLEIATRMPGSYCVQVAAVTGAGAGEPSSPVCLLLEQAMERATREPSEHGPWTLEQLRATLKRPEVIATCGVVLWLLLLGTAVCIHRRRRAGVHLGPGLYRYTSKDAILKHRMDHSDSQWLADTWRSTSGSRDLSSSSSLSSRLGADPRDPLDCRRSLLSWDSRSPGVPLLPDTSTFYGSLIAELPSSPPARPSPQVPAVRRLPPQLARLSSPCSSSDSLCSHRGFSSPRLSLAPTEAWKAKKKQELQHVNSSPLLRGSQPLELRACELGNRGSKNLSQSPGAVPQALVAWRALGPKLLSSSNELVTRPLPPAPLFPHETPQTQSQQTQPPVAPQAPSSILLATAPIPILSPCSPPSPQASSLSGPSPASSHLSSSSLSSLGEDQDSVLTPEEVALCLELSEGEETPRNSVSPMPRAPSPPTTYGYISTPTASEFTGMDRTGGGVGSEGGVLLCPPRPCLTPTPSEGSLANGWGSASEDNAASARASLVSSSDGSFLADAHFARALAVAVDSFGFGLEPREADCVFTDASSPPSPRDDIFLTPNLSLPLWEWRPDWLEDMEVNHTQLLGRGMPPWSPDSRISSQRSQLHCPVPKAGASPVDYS

B1: ヒト化MAb1抗体 H−2143 (antibody, human IgG2, kappa, V domains shown)
VH: EVQLVESGGGLVQPGGSLRLSCAASGFTFSTYAMSWVRQAPGKRLEWVATISQGGTYTYYPDSVKGRFTISRDNAKNTLYLQMNSLRAEDTAVYYCARLIYYDYLDYWGQGTLVTVSS
VL: DIVMTQSPLSLPVTLGEPASISCRSSQSLENENKNLYLNWYLQKPGQSPQLLIYRVSNRFSGVPDRFSGSGSGTDFTLKISRVEAEDVGVYYCLQVTHVPWTFGPGTKVDIKR
notes: Humanised IgG2 / kappa; also called H-2143; hMAb1-H4 / hMAb1-L2
B2: ヒト化MAb1抗体 H−2140 (antibody, human IgG2, kappa, V domains shown)
VH: B1 VH
VL: B1 VL with E32S, K34G, L36T
notes: Humanised IgG2 / kappa; also called H-2140; hMAb1-H4 / hMAb1-L1
B3: ヒト化MAb1抗体 H−1143 (antibody, human IgG2, kappa, V domains shown)
VH: B1 VH with R44G
VL: B1 VL
notes: Humanised IgG2 / kappa; also called H-1143; hMAb1-H2 / hMAb1-L2
B4: 抗ROBO4マウスモノクローナル抗体 MAb1 (antibody, V domains shown)
VH: EVQLVESGGGLVKPGGSLKLSCAASGFTFSTYAMSWVRQTPEKRLEWVATISNGGTYTYYPDSVKGRFTISRDNAENTLYLQMSSLRSEDTAMYFCARLIYYDYLDYWGHGTTLTVSS
VL: DAVMTQTPLSLPVSLGDQASISCRSSQSLENSNGNTYLNWYFQKPGQSPQLLIYRVSNRFSGVLDRFSGSGSGTDFTLKISRVEAEDFGVYFCLQVTHVPWTFGGGTKLEIKR
notes: Mouse IgG1 (gamma 1) / kappa from a hybridoma; The constant regions are not in the listing; also called MAb1

Molecular target: T1, rROBO4−ECD (ヒトROBO4細胞外領域ポリペプチド)
Assay: SPR, Biacore 3000; antibody captured by anti-human IgG on CM5 chip, rROBO4-ECD (0.1-200 nM) as analyte, 1:1 model

| Kd [nM] | Binder |
| --- | --- |
| 1.7 | B1 |
| 1.8 | B2 |
| 3.5 | B3 |

Molecular target: T2, N末端FLAG−tag付加型カニクイザルROBO4 cynoROBO4−1
Assay: flow cytometry, transfected HEK293 cells

| binding result | Binder |
| --- | --- |
| binds | B1 |
| binds | B2 |
| binds | B3 |

Molecular target: T3, N末端FLAG−tag付加型ヒトROBO1 (human, UniProt Q9Y6N7 58-1651)
T3 construct: also called hROBO1; pCI−FLAG−hROBO1
T3 sequence (Q9Y6N7 other isoform, or with tags, fused parts or gaps): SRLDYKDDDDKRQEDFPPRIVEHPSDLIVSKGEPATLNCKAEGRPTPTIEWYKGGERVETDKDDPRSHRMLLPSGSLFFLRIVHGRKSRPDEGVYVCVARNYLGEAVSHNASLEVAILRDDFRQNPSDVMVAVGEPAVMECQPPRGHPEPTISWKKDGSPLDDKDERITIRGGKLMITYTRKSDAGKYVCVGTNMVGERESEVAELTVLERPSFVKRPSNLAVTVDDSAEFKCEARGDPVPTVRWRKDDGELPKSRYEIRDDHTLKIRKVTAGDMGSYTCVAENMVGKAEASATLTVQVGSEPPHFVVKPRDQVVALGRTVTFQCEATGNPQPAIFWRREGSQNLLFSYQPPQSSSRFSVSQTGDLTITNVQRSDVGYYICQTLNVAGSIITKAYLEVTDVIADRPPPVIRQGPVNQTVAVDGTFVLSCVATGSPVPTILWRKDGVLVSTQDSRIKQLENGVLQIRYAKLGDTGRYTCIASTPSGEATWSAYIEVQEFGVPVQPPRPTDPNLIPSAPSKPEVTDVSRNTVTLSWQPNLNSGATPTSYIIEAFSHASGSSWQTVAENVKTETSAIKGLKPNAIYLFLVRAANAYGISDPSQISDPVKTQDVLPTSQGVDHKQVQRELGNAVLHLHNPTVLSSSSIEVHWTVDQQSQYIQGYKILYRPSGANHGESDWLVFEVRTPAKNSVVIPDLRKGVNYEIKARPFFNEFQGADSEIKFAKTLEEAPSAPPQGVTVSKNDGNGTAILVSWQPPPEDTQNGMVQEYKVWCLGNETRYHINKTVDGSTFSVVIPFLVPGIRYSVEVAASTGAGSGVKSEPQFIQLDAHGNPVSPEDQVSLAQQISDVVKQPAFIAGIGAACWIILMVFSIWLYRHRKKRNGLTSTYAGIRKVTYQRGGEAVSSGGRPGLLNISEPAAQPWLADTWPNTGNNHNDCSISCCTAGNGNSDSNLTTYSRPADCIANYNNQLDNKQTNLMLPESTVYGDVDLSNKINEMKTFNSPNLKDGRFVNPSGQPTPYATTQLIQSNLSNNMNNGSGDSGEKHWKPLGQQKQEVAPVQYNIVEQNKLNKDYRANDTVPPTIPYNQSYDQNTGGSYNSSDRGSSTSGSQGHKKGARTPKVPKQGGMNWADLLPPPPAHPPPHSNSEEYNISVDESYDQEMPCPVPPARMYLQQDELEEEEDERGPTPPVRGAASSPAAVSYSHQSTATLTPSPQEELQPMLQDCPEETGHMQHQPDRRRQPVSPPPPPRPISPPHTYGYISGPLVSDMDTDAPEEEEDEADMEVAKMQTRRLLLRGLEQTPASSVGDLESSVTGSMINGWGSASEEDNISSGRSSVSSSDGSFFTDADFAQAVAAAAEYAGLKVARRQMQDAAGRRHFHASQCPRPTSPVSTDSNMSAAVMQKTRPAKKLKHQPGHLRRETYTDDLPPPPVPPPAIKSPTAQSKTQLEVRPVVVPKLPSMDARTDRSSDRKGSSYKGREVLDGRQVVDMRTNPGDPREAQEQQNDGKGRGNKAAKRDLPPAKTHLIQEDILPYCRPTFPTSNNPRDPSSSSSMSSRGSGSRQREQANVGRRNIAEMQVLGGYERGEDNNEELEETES
Assay: flow cytometry, transfected HEK293 cells

| Binder | binding result |
| --- | --- |
| B1 | no binding (tested: 10 μg/mL (method of 4)-4-2)) |
| B2 | no binding (tested: 10 μg/mL (method of 4)-4-2)) |
| B3 | no binding (tested: 10 μg/mL (method of 4)-4-2)) |
| B4 | no binding (tested: 10 μg/mL) |
